Assay results published in paper PMC12325603 (Nature Communications, 2025).

Biological target: the molecule itself
Test: cryo-electron tomography

B1: Munc13C K1494D/K1495D/K1500D (trimer 3xD) (domain or fragment)
chain: not shown
- stoichiometry N: 6
